Assay results as given in patent publication US20220153853A1 (JIANGSU HENGRUI MEDICINE, published 2022).
Where two headings read alike, the source gives them in different places.

Experiments:
[1] = target: T1, Mouse GCGR (mouse, UniProt Q61606 27-485); experiment: cell-based or functional assay
[2] = target: T2, human GCGR (full-length glucagon receptor of 477 amino acids) (human, UniProt P47871 26-477); experiment: cell-based or functional assay
[3] = target: T1, Mouse GCGR; experiment: cell ELISA on fixed CHO cells overexpressing GCGR
Experimental: (§1) The expression levels of GCGR were detected after two weeks of pressure screening, After the GCGR-overexpressing cells were fixed to the bottom of 96-well plate, the antibodies were added and the signal strength was used to determine the binding activity of the antibody to GCGR overexpressing CHO cells. The binding abilities of the antibody to the three species of GCGRs were detected with the same binding assay. As an example, the binding of the GCGR antibodies to human GCGR was detected by an assay specifically described as follows:
(§2) The cells were seeded in a 96-well plate at a density of 0.9-1.0×10⁶/ml, 100 μl/well and cultured overnight. The supernatant was discarded, the plate was washed three times with PBS, 100 μl/well of cell immune fixed solution (Beyotime, Cat No. P0098) was added and fixed for an hour at room temperature, and washed four times with PBS. The liquid was discarded, 200 μl/well blocking solution (5% skim milk (BD skim milk, Cat Wo. 232100) diluted with PBS) was added, and incubated in an incubator at 37° C. for 3 hours for blocking. After the blocking was finished, the blocking solution was discarded, the plate was washed 3 times with PBST buffer (PBS comprising 0.05% tweenW-20, pH7.4), 50 μl/well of various concentrations of each of the test antibodies (antibodies purified from hybridoma, chimeric antibodies or humanized antibodies) diluted with sample dilution solution were added, and incubated in an incubator at 37° C. for 2 hours. After the incubation was finished, the plate was washed 3 times with PBST, 50 μl/well of HRP-labeled goat anti-mouse secondary antibody (JacksoW ImmuWo Research, Cat No. 115-035-003) or goat anti-human secondary antibody (JacksoW ImmuWo Research, Cat Wo. 109-035-003) diluted with sample dilution solution was added, and incubated at 37° C. for 1 hour. The plate was washed 3 times with PBST, 50 μl/well of TMB chromogenic substrate (KPL, Cat Wo. 52-00-03) was added, incubated at room temperature for 10 min, and 50 μl/well of 1M H₂SO4 was added to stop the reaction. The absorbance value was read by a microplate reader (Thermo scientific Multiskan MK3) at a wavelength of 450 nm, and the data was analyzed with GraphPad Prism 5. The binding of GCGR chimeric antibodies to GCGR-overepressing CHO cells was calculated as EC50 value.

[4] = target: T3, Cynomolgus monkey GCGR (cynomolgus monkey); experiment: cell ELISA on fixed CHO cells overexpressing GCGR
T3 construct: whole, on cells; also called cynomolgus GCGR
Experimental: as §1, §2

[5] = target: T2, human GCGR (full-length glucagon …); experiment: cell ELISA on fixed CHO cells overexpressing GCGR
Experimental: as §1, §2

[6] = target: T2, human GCGR (full-length glucagon …); experiment: competitive cell ELISA on GCGR-overexpressing CHO cells, biotin-labeled against unlabeled antibody; competitor ch1808
Excerpt: (§3) The GCGR epitopes bound by GCGR antibodies were classified by ELISA assay, in which the competitive binding of the biotin-labeled antibodies with different concentrations of the standard antibody to GCGR-overexpressing CHO cells was detected. The method for preparing the cell plate was the same as that of Test Example 1. The following specific procedures are as follows: The antibody was labelled according to the biotin labeling kit instructions (Dojindo
(§4) Molecular Technologies, Inc. LK03). The unlabeled test antibody was diluted to a range of concentrations with sample dilution solution in a 96-well cell plate, 50 μl/well, and incubated at 37° C. for 2 hours. After the incubation was finished, the plate was washed 3 times with PBST, 50 μl/well of biotin-labeled antibody diluted with sample dilution solution was added, at a concentration of 0.1 μg/ml, incubated at 37° C. for 2 hours, the plate was washed 3 times with PBST, and HRP-labeled goat-anti-human secondary antibody (JacksoW ImmuWo Research, Cat Wo. 109-035-003) was added, and incubated at 37° C. for 1 hour. The plate was washed 3 times with PBST, 50 μl/well of TMB chromogenic substrate (KPL, Cat No. 52-00-03) was added, incubated at room temperature for 10 min, and 50 μl/well of 1M H₂SO₄ was added to stop the reaction. The absorbance value was read by a microplate reader (Thermo scientific Multiskan MK3) at a wavelength of 450 nm, and the data was analyzed with GraphPad Prism 5.

[7] = target: T2, human GCGR (full-length glucagon …); experiment: competitive cell ELISA on GCGR-overexpressing CHO cells, biotin-labeled against unlabeled antibody; competitor hu1810-12
Excerpt: as §3, §4

[8] = target: T2, human GCGR (full-length glucagon …); experiment: competitive cell ELISA on GCGR-overexpressing CHO cells, biotin-labeled against unlabeled antibody; competitor hu1803-9
Excerpt: as §3, §4

[9] = target: T1, Mouse GCGR; experiment: cell-based or functional assay; remark: listed apart in the source
[10] = target: T3, Cynomolgus monkey GCGR; experiment: cell-based or functional assay
[11] = target: T2, human GCGR (full-length glucagon …); experiment: cell-based or functional assay; remark: listed apart in the source
[12] = target: T2, human GCGR (full-length glucagon …); experiment: cell-based or functional assay; remark: listed apart in the source

T1 sequence (Q61606 27-485): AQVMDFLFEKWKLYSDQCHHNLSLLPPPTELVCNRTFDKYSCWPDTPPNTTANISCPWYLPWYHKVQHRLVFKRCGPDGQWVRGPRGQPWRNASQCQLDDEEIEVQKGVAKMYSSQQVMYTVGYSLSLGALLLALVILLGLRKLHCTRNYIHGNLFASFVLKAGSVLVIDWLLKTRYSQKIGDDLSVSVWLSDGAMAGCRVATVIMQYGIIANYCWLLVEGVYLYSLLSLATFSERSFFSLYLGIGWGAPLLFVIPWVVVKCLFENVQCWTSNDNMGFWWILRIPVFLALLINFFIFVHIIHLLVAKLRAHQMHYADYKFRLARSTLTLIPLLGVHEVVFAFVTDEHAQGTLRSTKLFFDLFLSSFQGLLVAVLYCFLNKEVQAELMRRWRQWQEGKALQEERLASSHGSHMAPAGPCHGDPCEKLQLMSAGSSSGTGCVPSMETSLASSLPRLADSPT
T2 sequence (P47871 26-477 limits assumed): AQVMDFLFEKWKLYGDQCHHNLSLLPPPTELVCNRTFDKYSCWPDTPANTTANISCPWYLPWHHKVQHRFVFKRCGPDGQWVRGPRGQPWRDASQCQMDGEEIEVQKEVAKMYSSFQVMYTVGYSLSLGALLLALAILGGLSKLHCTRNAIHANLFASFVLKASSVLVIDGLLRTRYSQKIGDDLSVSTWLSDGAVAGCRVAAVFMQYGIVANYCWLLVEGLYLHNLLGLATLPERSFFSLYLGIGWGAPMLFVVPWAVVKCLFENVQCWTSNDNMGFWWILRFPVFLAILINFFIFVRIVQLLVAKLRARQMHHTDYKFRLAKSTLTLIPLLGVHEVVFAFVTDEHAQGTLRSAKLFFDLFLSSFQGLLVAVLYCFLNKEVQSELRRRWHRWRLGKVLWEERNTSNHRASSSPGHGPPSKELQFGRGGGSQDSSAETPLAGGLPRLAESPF

IC50 [1] [nM]	Imax (%) [1] [%]	IC50 [2] [nM]	Imax [2] [%]	EC50 [3] [nM]	EC50 [4] [nM]	EC50 [5] [nM]	competition efficiency IC % [6] [%]	competition efficiency IC % [7] [%]	competition efficiency IC % [8] [%]	IC50 [9] [nM]	Imax (%) [9] [%]	IC50 [10] [nM]	Imax (%) [10] [%]	IC50 [11] [nM]	Imax [11] [%]	IC50 [12] [nM]	Imax (%) [12] [%]	Binder
24.7	93	79.3	100	0.718	0.213	0.117	–	–	–	–	–	–	–	–	–	–	–	ch1803 (antibody, human IgG4 S228P, kappa, F234A L235A, V domains shown, IgG4-AA / kappa chimeric antibody) VH: QFQLHQSGAELVKPGASVKLSCKATGYTFTDYWIEWVKQRPGHGLEWIGEILPGSTYTNYNEKFKGRATFTAEPSSSSAYMQLSGLTTEDSAIYYCSRGLSTLMAVDYFDYWGQGTTLTVSS VL: DIQMTQTTSSLSASLGDRVTINCRASQDISNYLNWYQQKPDGTVKLLIYYSSTLHSGVPSRFSGSGSGTDYSLTISHLEQEDIATYFCQQTNIFPWTFGGGTKLEIRT
26.6	100	105	98	1.02	0.536	0.677	100	54.3	46.6	–	–	–	–	–	–	–	–	ch1808 (antibody, human IgG4 S228P, kappa, F234A L235A, V domains shown, IgG4-AA / kappa chimeric antibody) VH: QVQLQQSGAELARPGASVKLSCKASGDTFTTNGISWVKQRIGQGLEWIGEIYPRSGNTYYNENFKGKATLTADKSSTTAYMELRRLTSEDSAVYFCARSITSVIGADYFDYWGQGTTLTVSS VL: DIQMTQTTSSLSASLGDRVTISCRASQDISNYLNWYQKKPDGTVKLLIYYSSTLHSGVPSRFSGSGSGTDYSLTISNLEQEDIATYFCQQGNTFPWTFGGGTKLEIKR
12.8	96	59.8	83	0.164	0.297	0.193	–	–	–	–	–	–	–	–	–	–	–	ch1817 (antibody, human IgG4 S228P, kappa, F234A L235A, V domains shown, IgG4-AA / kappa chimeric antibody) VH: EVQLVESGGDLVQPGRSMKLSCAASGFTFSNYYMAWVRQAPTKGLEWVASISTGGVNTYYRDSVKGRFTISRDNAKNNLYLQMDSLRSEETATYYCARHTTADYFYGIYFALDAWGQGTSVTVSS VL: QFTLTQPKSVSGSLRSTITIPCERSSGDIGDSYVNWYQQHLGRPPLNVIYADVQRPSEVSDRFSGSIDSSSNSASLTITNLQMDDEADYFCQSYDTNIDIIFGGGTKLTVLR
16	87	62.5	59	0.568	0.428	0.383	–	–	–	–	–	–	–	–	–	–	–	ch1822 (antibody, human IgG4 S228P, kappa, F234A L235A, V domains shown, IgG4-AA / kappa chimeric antibody) VH: EVRLVESGGDFVQPGRSVKLSCAASGFTFSNYYMAWVRQAPTKGLEWVGSISTGGVNTYYRDSVKGRFTISRDNAESTLYLQMDSLRSEETATYYCARHTTPDYHYGIYFAMDAWGQGTSVTVSS VL: QVTLTQPKSVSGSLRSTITIPCERSSGDIGESYVNWYQQHLGRPPINVIYADDQRPSEVSDRFSGSIDSSSNSASLTITNLQVDDEADYFCQSYDSSIDIFFGGGTKLTVLR
–	–	72.5	100	0.442	0.248	0.117	–	–	–	–	–	–	–	–	–	–	–	ch1810 (antibody, human IgG4 S228P, kappa, F234A L235A, V domains shown) VH: QVQLQQSGTELARPGTSVTLSCKASGYTFTNYAISWVKQRTGQGLEWIGEIYPTSGNTYYNEKFKGKATLTADRSSKTMYMELRSLTSVDSAVYFCASGVITTVVSTDYFDYWGQGSPLTVSS VL: DIQMTQIPSSLSVSLGDRVTISCRASLDISNYLNWYQLKPDGTVKLLIYYTSTLHSGVSSRFSGSGSGTEYSLTISNLEQEDIATYFCQQGNMVPYTFGGGTKLEIKR
–	–	–	–	–	–	–	100	100	100	11.2	100	220	100	78.4	100	54	100	hu1803-9 (antibody, human IgG4 S228P, kappa, F234A L235A, V domains shown, IgG4-AA / kappa humanized antibody; also called hu1803_VH.1 + hu1803_VL.1B; GCGR monoclonal antibody) VH: EVQLVQSGAEVKKPGASVKVSCKASGYTFTDYWIEWVRQAPGQGLEWMGEILPGSTYTNYNEKFKGRVTMTRDTSTSTVYMELSSLRSEDTAVYYCARGLSTLMAVDYFDYWGQGTTVTVSS VL: DIQMTQSPSSLSASVGDRVTITCRASQDISNYLNWYQQKPGKAVKLLIYYSSTLHSGVPSRFSGSGSGTDYTLTISSLQPEDFATYYCQQTNIFPWTFGGGTKVEIKR
–	–	–	–	–	–	–	100	100	100	17.5	97	886	99	75.9	99.7	–	–	hu1810-12 (antibody, human IgG4 S228P, kappa, F234A L235A, V domains shown, IgG4-AA / kappa humanized antibody; also called hu1810_VH.1C + hu1810_VL.1B) VH: QVQLVQSGAEVKKPGSSVKVSCKASGGTFSNYAISWVKQAPGQGLEWIGEIYPTSGNTYYNEKFKGKATLTADRSTSTMYMELSSLRSEDTAVYYCASGVITTVVSTDYFDYWGQGTLVTVSS VL: DIQMTQSPSSLSASVGDRVTITCRASLDISNYLNWYQLKPGKAVKLLIYYTSTLHSGVSSRFSGSGSGTEYTLTISSLQPEDFATYYCQQGNMVPYTFGGGTKVEIKR
18	100	95	91	0.343	0.358	0.297	100	100	100	–	–	–	–	–	–	–	–	ch1805 (antibody, human IgG4 S228P, kappa, F234A L235A, V domains shown, IgG4-AA / kappa chimeric antibody; also called chimeric antibody of clone 1805) VH: EVQLQQSGPELVKPGASVKIPCKTSGYTFTDYNMDWVKQSHGRSLEWIGSIDPDNGGTIYNQKFKGKATLTVDKSSSTAYMELRSLTSEDTAVYYCTRDYYGSSSWFAYWGQGTLVTVSA VL: DVVMTQSPATLSVTPGDRVSLSCRASQSISDYLHWYQQKSHESPRLLIKYASQSISGIPSRFSGSGSGSDFTLSINSVEPEDVGVYYCQNGHSFPYTFGGGTKLEIKR
